# Target: T1, purified HA-NSUN2 (human, UniProt Q08J23 1-767)
# T1 construct: NSUN2, human, in p-GEX-4T-1; The plasmid is called GST-HA-NSUN2, the protein in the assay HA-NSUN2; also called GST-HA-NSUN2; HA-NSUN2 fusion protein; source: E. coli, purified (prepared 'as described previously')
# Experiment: pull-down; Called GST pull-down; about 100 µg GST-Flag-NONO and HA-NSUN2 incubated overnight with anti-Flag antibody at 4 °C, protein A/G magnetic beads 1 h at room temperature, low-pH elution, Western blot
# Settings: both partners purified
# T1 sequence (Q08J23 whole entry, the tested form may be a part): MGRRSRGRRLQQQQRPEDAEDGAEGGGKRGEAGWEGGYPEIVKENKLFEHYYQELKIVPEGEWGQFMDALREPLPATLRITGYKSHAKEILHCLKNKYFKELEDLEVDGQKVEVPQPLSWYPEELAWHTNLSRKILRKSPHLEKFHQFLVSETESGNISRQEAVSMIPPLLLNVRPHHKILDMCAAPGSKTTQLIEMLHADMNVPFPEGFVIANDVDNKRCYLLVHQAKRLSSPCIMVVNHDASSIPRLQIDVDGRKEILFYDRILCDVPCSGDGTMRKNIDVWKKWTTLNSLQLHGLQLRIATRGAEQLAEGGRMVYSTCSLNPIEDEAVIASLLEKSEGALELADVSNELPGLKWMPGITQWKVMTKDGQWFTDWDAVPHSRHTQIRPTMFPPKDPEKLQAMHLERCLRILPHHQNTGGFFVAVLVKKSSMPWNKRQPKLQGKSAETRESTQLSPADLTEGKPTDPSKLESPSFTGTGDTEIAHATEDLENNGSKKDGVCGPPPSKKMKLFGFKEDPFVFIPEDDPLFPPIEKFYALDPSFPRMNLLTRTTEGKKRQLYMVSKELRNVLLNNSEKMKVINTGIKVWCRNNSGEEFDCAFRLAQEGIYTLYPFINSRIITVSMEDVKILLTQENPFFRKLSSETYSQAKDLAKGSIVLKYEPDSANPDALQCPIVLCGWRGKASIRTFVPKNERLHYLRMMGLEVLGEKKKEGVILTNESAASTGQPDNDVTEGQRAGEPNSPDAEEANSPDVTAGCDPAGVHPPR
binder,measurement,value
"GST-Flag-NONO (natural protein, human, UniProt Q15233 1-471, looked up, NONO, human, FL, in p-GEX-4T-1; also called GST-tagged Flag-NONO; FLAG-NONO-FL in p-GEX-4T-1; source: E. coli, purified (prepared 'as described previously')) MQSNKTFNLEKQNHTPRKHHQHHHQQQHHQQQQQQPPPPPIPANGQQASSQNEGLTIDLKNFRKPGEKTFTQRSRLFVGNLPPDITEEEMRKLFEKYGKAGEVFIHKDKGFGFIRLETRTLAEIAKVELDNMPLRGKQLRVRFACHSASLTVRNLPQYVSNELLEEAFSVFGQVERAVVIVDDRGRPSGKGIVEFSGKPAARKALDRCSEGSFLLTTFPRPVTVEPMDQLDDEEGLPEKLVIKNQQFHKEREQPPRFAQPGSFEYEYAMRWKALIEMEKQQQDQVDRNIKEAREKLEMEMEAARHEHQVMLMRQDLMRRQEELRRMEELHNQEVQKRKQLELRQEEERRRREEEMRRQQEEMMRRQQEGFKGTFPDAREQEIRMGQMAMGGAMGINNRGAMPPAPVPAGTPAPPGPATMMPDGTLGLTPPTTERFGQAATMEGIGAIGGTPPAFNRAAPGAEFAPNKRRRY",binding result,binds
